Values joined by “and” are separate entries in the source; they are usually repeats but may differ in a detail not shown here. Equal values may be shown once. Each block holds one molecule with its values, some of them ahead of it.
Tests used:
[1] = tested on: RAD51 foci in BxPC-3 cell nuclei; assay: Immunofluorescence detection of RAD51 nuclear foci; type: cell-based; conditions: 1.5 h
Procedure: General cell culture. BxPC-3 cells (purchased from ATCC) were grown in RPMI 1640 containing 10% FBS, 100 U/mL penicillin–streptomycin, and 2 mM glutamine. All media and supplements were from Sigma-Aldrich. Cultures were routinely tested for mycoplasma contamination. Immunofluorescence. Immunofluorescence was used to study RAD51 nuclear translocation. To visualize RAD51 in cell nuclei, BxPC-3 cells were seeded on glass coverslips placed in a 6-well culture plate (2 × 10^5 cells/well) and allowed to adhere for 24 h. […] The medium was then removed to eliminate the chemotherapeutic agents, and cells were maintained in the presence of 5 µM BRC4myr for an additional 4 h. After this time, cells were fixed with PBS containing PFA 4% for 15 min, permeabilized in 70% ethanol, and then washed twice in PBS. […] After washing, coverslips were incubated in secondary anti-rabbit rhodamine-labelled antibody (Novus Biologicals, 1:1000 in 1% BSA/PBS) for 30 min at 37 °C, washed, air-dried, and mounted in a solution 2 µg/mL DAPI in DABCO. Images were acquired using a Nikon fluorescent microscope equipped with filters for TRITC and DAPI. The percentage of cells bearing nuclear foci was estimated by analyzing approximately 300 cells for each treatment sample.

RAD51 (Homo sapiens) = RAD51 (Homo sapiens) (UniProt Q06609); assay: GST pull-down; conditions: cited from earlier work
RAD51 = conditions: pull-down assays; cited from earlier work
Description: This information comes from the only 3D structure of the RAD51-BRC4 interaction (PBD 1NOW).

[2] = biological target: full-length recombinant human RAD51 (N-terminal 6xHis-tagged) (human) (UniProt Q06609)
[3] = biological target: T1, RAD51 fibrils (full-length recombinant human RAD51) (Homo sapiens, UniProt Q06609); assay: Static light scattering (SLS / CG-MALS) of BRC4-induced RAD51 defibrillation; type: biochemical; conditions: RAD51 6.25 µM = 0.25 mg/mL; very significant stoichiometric excesses of peptide
T1 construct: The full-length human RAD51 was expressed in E. coli Rosetta2(DE3) pLysS cells; made in house; host or cells: E. coli Rosetta2(DE3) pLysS, pET15b plasmid
T1 sequence (Q06609 1-339): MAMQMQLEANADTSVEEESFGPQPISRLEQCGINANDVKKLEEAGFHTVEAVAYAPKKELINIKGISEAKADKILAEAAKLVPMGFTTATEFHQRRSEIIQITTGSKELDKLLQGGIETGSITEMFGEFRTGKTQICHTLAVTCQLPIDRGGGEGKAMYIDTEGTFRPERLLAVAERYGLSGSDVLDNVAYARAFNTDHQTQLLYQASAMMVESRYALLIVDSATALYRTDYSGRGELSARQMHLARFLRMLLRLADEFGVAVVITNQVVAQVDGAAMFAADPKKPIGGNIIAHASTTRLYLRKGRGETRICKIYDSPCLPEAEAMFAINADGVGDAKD
Procedure: Static light scattering (SLS) and composition-gradient multi-angle static light scattering (CG-MALS). Measurements were carried out using a Calypso automated delivery system as a mixing unit, connected to a Dawn Heleos II multi-angle light scattering (MALS) and a T-rEX refractive index (RI) detector, both operating at 660 nm (all instruments produced by Wyatt Technology, Santa Barbara, CA, USA). […] Injection volume and flow rate were fixed at 0.8 mL and 1 mL/min, respectively. A delay time of 180 s was set between each injection.

[4] = biological target: T2, 6xHis-RAD51 (full-length recombinant human RAD51) (Homo sapiens, UniProt Q06609); assay: Microscale thermophoresis (MST); type: binding; conditions: highest concentration tested 400 μM; data not shown
T2 construct: The full-length human RAD51 was expressed in E. coli Rosetta2(DE3) pLysS cells; made in house; host or cells: E. coli Rosetta2(DE3) pLysS, pET15b plasmid
T2 sequence (Q06609 1-339): T1 sequence (Q06609 1-339)

RAD51 fibrils = assay: Negative staining TEM of RAD51 fibrils; type: biochemical, human; conditions: large stoichiometric excess of peptide; RAD51 0.1 mg/mL (2.5 µM); incubation 2 h at 4 °C
Procedure: After incubation, each sample was adsorbed into pure carbon film 300-mesh copper grids (Electron Microscopy Sciences, Hatfield, PA, USA). After several washes in RAD51 storage buffer (20 mM Hepes (pH 8.00), 250 mM KCl, 0.1 mM EDTA, 2 mM DTT, 10% (v/v) glycerol), each sample was negatively stained using 1% uranyl acetate in MQ water. […] In total, more than 2500 fibrils from different negative staining experiments were measured for quantification.

[5] = biological target: T3, full-length recombinant human RAD51 (N-terminal 6xHis-tagged) (human), Q06609; assay: static light scattering (CG-MALS, Zimm plots); RAD51 alone at five concentrations between 0.1 and 0.35 mg/mL (2.5-8.75 µM); 20 mM HEPES pH 8, 0.1 mM EDTA, 250 mM KCl, 5% glycerol, 2 mM DTT; conditions: remark: other sources report otherwise
T3 chain: T1 sequence (Q06609 1-339)

[6] = biological target: T4, full-length recombinant human RAD51 (N-terminal 6xHis-tagged) (human, UniProt Q06609 1-339); assay: MST; RED-tris-NTA-labelled 6xHis-RAD51 constant (25 nM in the methods, 100 nM in the results), 16 concentrations of BRC4 up to 32 µM; apparent Kd bounded by the lowest EC50 (titration regime); conditions: both partners purified
T4 construct: RAD51, human, full length; recombinase of 339 amino acids, about 40 kDa as monomer; Forms fibrils (homo-oligomers) without DNA; for MST labelled on the His tag with RED-tris-NTA 2nd Generation dye; also called His-RAD51; 6xHis-RAD51; source: E. coli Rosetta2(DE3) pLysS, pET15b, purified (His-Trap, anion exchange); not shown: His6, N-terminal, kept
T4 sequence (looked up): T1 sequence (Q06609 1-339)

[7] = biological target: T4, full-length recombinant human RAD51 …; assay: static light scattering + other: dynamic light scattering + MST; midpoint of BRC4-induced RAD51 defibrillation against the BRC4/RAD51 molar ratio, RAD51 6.25 µM (SLS, DLS) or 100 nM (MST); conditions: both partners purified
[8] = biological target: T4, full-length recombinant human RAD51 …; assay: static light scattering (CG-MALS) + other: dynamic light scattering; RAD51 constant at 0.25 mg/mL (6.25 µM) with BRC4 or scBRC4 from 0 to 0.19 mg/mL (48 µM); 20 mM HEPES pH 8, 0.1 mM EDTA, 250 mM KCl, 5% glycerol, 2 mM DTT; DLS at 25 °C; step constants kd and kd1 from a defibrillation model fitted to the apparent weight average mass; conditions: both partners purified
[9] = biological target: T4, full-length recombinant human RAD51 …; assay: negative-staining TEM with streptavidin-gold labelling; 0.1 mg/mL (2.5 µM) 6xHis-RAD51 with biotinylated BRC4 (non-labelled BRC4 as control) on grids, streptavidin-gold; conditions: both partners purified

Molecule: N.N.[Cl][Pt][Cl] [cisplatin]
RAD51 nuclear foci, cisplatin alone ([1]; 50 µM cisplatin): large number of nuclear RAD51 foci

Molecule: COc1cccc2c1C(=O)c1c(O)c3c(c(O)c1C2=O)C[C@@](O)(C(=O)CO)C[C@@H]3O[C@H]1C[C@H](N)[C@H](O)[C@H](C)O1 [doxorubicin]
RAD51 nuclear foci, doxorubicin alone ([1]; 200 nM doxorubicin): large number of nuclear RAD51 foci

Molecule: BRCA2 BRC4 (from UniProt P51587)
Kd (RAD51 (Homo sapiens)): 1500 nM

Molecule: BRCA2: large protein (3418 amino acids) that interacts with RAD51 through eight BRC repeats
BRCA2-RAD51 binding affinity (RAD51): nanomolar affinity

homologous recombination (HR) assay in BxPC-3 cells, IC50 of HR inhibition [2]: 10 µM | homologous recombination (HR) assay in BxPC-3 cells, percent HR inhibition at 5, 10 and 30 µM BRC4myr [2]: 85.1%
Molecule: myristoylated BRC4 peptide (BRC4myr)

binding to RAD51 (MST) [4]: no binding
Molecule: scBRC4: BRC4 (35 residues) peptide, carrying a double mutation [F1524A, T1526A] (KEPTLLGAHAASGKKVKIAKESLDKVKNLFDEKEQ)
apparent weight average mass versus no-interaction prediction [3]: followed the theoretical “no-interaction” prediction | RAD51 fibrils in TEM (RAD51 fibrils): the fibrils were still visible

stoichiometry N (protomers per aggregate) [5]: 40 and 70
B1: full-length recombinant human RAD51 (N-terminal 6xHis-tagged), Q06609 1-339 (natural protein)
chain: T1 sequence (Q06609 1-339)

Kd [6]: ≤ 60 nM | stoichiometry N [7]: 1 BRC4 per RAD51 | kd (each step of loss of a RAD51 unit from a fibril, from the defibrillation model) [8]: 33.7 ± 0.5 dimensionless
B2: BRC4 peptide (residues 1517-1551 of BRCA2) (peptide)
peptide: KEPTLLGFHTASGKKVKIAKESLDKVKNLFDEKEQ
notes: BRCA2, fourth BRC repeat, residues 1517-1551, MW 3957.6 Da; also called fourth BRC repeat of BRCA2; source: bought: Thermo Fisher Scientific (synthetic peptide)

binding result [9]: binds
B3: biotinylated BRC4 peptide (peptide)
peptide: B2 peptide
modifications: biotin (position not given)
notes: BRCA2, fourth BRC repeat, residues 1517-1551, as BRC4; also called labelled peptide; source: bought: Thermo Fisher Scientific (synthetic peptide, BRC4 derivative)
